Results reported in paper PMC10405735 (Frontiers in Immunology, 2023).

B1: murine GPR182 (mGPR182), expressed from mGPR182 T2A GFP in 300.19 pre-B cells (receptor, mouse, UniProt P43142 1-398, looked up)
chain: MSVIPSPRPVSTLEPDNDFRDIHNWTELLHLFNQTFTDCHIEFNENTKHVVLFVFYLAIFVVGLVENVLVICVNCRRSGRVGMLNLYILNMAIADLGIILSLPVWMLEVMLEYTWLWGSFSCRFIHYFYLVNMYSSIFFLTCLSIDRYVTLTNTSPSWQRHQHRIRRAVCAGVWVLSAIIPLPEVVHIQLLDGSEPMCLFLAPFETYSAWALAVALSATILGFLLPFLLIAVFNILTACRLRRQRQTESRRHCLLMWAYIVVFAICWLPYQVTMLLLTLHGTHIFLHCHLVNLLYFFYEIIDCFSMLHCVANPILYNFLSPSFRGRLLSLVVRYLPKEQARAAGGRASSSSSTQHSIIITKEGSLPAAADLHTHPIRNVQASSPPPNTSPTLCNSVAS
notes: GPR182, mouse; Expressed fused via a self-cleaving T2A peptide to GFP (backbone pME-Cas9-T2A-GFP, Addgene 63155); receptor and GFP are split post-translationally; also called ACKR5 (proposed); source: 300.19 mouse pre-B cells, stably transfected, on cells

Experiments:
Settings in all cases: one partner purified
hCXCL12, unlabeled = target: T1, hCXCL12, unlabeled (human, UniProt P48061 22-93); assay: flow cytometry on cells; competition binding at 4°C: 300.19 cells expressing mGPR182 or hGPR182 with 3 nM fluorescent chemokine and increasing concentrations of its unlabeled counterpart, 45 min
T1 construct: CXCL12, human; also called X12

[1] = target: B1; assay: flow cytometry on cells; direct binding: 300.19 cells expressing GPR182 T2A GFP with increasing concentrations of fluorescently labelled chemokine, 45 min; temperature not stated for this experiment
[2] = target: B1; assay: flow cytometry on cells; competition binding at 4°C: 300.19 cells expressing mGPR182 or hGPR182 with 3 nM fluorescent chemokine and increasing concentrations of its unlabeled counterpart, 45 min
[3] = target: T2, human GPR182 (hGPR182), expressed from hGPR182 T2A GFP in 300.19 pre-B cells (human, UniProt O15218 1-404); assay: as above
T2 construct: GPR182, human; Expressed fused via a self-cleaving T2A peptide to GFP (backbone pME-Cas9-T2A-GFP, Addgene 63155); split post-translationally; also called ACKR5 (proposed); source: 300.19 mouse pre-B cells, stably transfected, on cells

[4] = target: B1; assay: flow cytometry on cells; competition scavenging at 37°C: 300.19 cells expressing mGPR182 or hGPR182 with 3 nM fluorescent chemokine and increasing concentrations of its unlabeled counterpart, 45 min
[5] = target: T2, human GPR182 (hGPR182), expressed from …; assay: as above

Kd (hCXCL12, unlabeled) [nM] | Kd [1] [nM] | Kd [2] [nM] | Kd [3] [nM] | Kd (competition scavenging) [4] [nM] | Kd (competition scavenging) [5] [nM] | Binder
120 |  |  |  |  |  | B1
 | ~8.5 |  |  |  |  | mCCL28, fluorescently labelled (ligand, mouse, UniProt Q9JIL2 17-130, looked up, fluorescent label (AF647 or Dy649), site not stated, CCL28, mouse; also called CCL28-AF647; mCCL28-AF647) FQTSEAILPMASSCCTEVSHHVSGRLLERVSSCSIQRADGDCDLAAVILHVKRRRICISPHNRTLKQWMRASEVKKNGRENVCSGKKQPSRKDRKGHTTRKHRTRGTHRHEASR
 |  | 10 | 28 | 14 | 52 | mCCL28, unlabeled (ligand, mouse, UniProt Q9JIL2 17-130, looked up, CCL28, mouse) FQTSEAILPMASSCCTEVSHHVSGRLLERVSSCSIQRADGDCDLAAVILHVKRRRICISPHNRTLKQWMRASEVKKNGRENVCSGKKQPSRKDRKGHTTRKHRTRGTHRHEASR
 |  | 120 |  |  |  | mCCL20, unlabeled (ligand, mouse, UniProt O89093 28-97, looked up, CCL20, mouse) ASNYDCCLSYIQTPLPSRAIVGFTRQMADEACDINAIIFHTKKRKSVCADPKQNWVKRAVNLLSLRVKKM
 |  | 180 |  | 250 |  | mCCL19, unlabeled (ligand, mouse, UniProt O70460 26-108, looked up, CCL19, mouse) GANDAEDCCLSVTQRPIPGNIVKAFRYLLNEDGCRVPAVVFTTLRGYQLCAPPDQPWVDRIIRRLKKSSAKNKGNSTRRSPVS
 |  | 20 | 20 | 13 | 9 | hCXCL13, unlabeled (ligand, human, UniProt O43927 23-109, looked up, CXCL13, human) VLEVYYTSLRCRCVQESSVFIPRRFIDRIQILPRGNGCPRKEIIVWKKNKSIVCVDPQAEWIQRMMEVLRKRSSSTLPVPVFKRKIP
 |  |  | 55 |  | 75 | hCCL19, unlabeled (ligand, human, UniProt Q99731 22-98, looked up, CCL19, human) GTNDAEDCCLSVTQKPIPGYIVRNFHYLLIKDGCRVPAVVFTTLRGRQLCAPPDQPWVERIIQRLQRTSAKMKRRSS
